Test results as given in patent US7285395B2, “Stearoyl-CoA desaturase 4 gene” (Wisconsin Alumni Research Foundation, priority 2004, dated 2007).

Experiments:
mSCD4 = experiment: quantitative RT-PCR of mSCD4 mRNA in hearts of leptin-treated ob/ob mice; assay type: in vivo, mouse; details: heart of leptin-treated ob/ob mice, 12 days
Procedure: A, SCD activity: Microsomes were prepared from hearts of PBS-treated, ob/ob, ob/ob pair-fed (PF), and leptin-treated (ob/ob-Leptin) mice, and SCD enzyme activity was determined by measuring the incorporation of radioactivity in oleoyl-CoA using [1-^14C]stearoyl-CoA as a substrate. The reaction products were separated by TLC, and the radioactivity was quantitated. Each value represents the mean±S.E. (n=4). B, Levels of monounsaturated fatty acids in the hearts of ob/ob mice: Total fatty acids were extracted from heart of ob/ob mice treated with either leptin or PBS and wild type controls quantitated by GLC as described in the example below. *, p<0.05 versus wt-PBS; #,p<0.05 versus ob/ob-PBS. C, Total RNA was prepared from hearts of PBS or leptin-treated ob/ob mice and used to measure SCD1, SCD2, and SCD4 mRNA levels by quantitative RT-PCR analysis. The fold change relative to that of wild type was calculated after correction for the levels of cyclophilin used as a standard. Each value represents the mean±S.E. (n=4).
Subcutaneous Leptin Treatment—ob/ob mice were individually caged and allowed to acclimate for a number of days prior to the start of the experiment. […] Body mass and food intake were measured daily. […]

ob/ob mice = experiment: food intake and body weight of ob/ob mice under subcutaneous leptin treatment; assay type: in vivo, mouse; details: leptin 200 ng/h subcutaneous miniosmotic pump
Procedure: Subcutaneous Leptin Treatment—ob/ob mice were individually caged and allowed to acclimate for a number of days prior to the start of the experiment. The mice were treated with 200 ng/h of recombinant mouse leptin (Amgen, Thousand Oaks, Calif.) […] phosphate-buffered saline (PBS) for 12 days using subcutaneously placed Alzet miniosmotic pumps model 1002 (AlZa Co., Palo Alto, Calif.) as described in Soukas, A. et al. (2000) Genes Dev. 14, 963-980, which is herein incorporated by reference in its entirety. As an additional control, a group of mice referred to as pair-fed was treated with PBS and given the same amount of food to eat as leptin-treated mice voluntarily consumed. All of the data presented were generated from this or a similar time course where mice were either treated with PBS or leptin for 12 days. Body mass and food intake were measured daily.
ob/ob mice have a mutation in the leptin gene and are a model of obesity, insulin resistance, and diabetes. […] We analyzed the mRNA level of the SCD4 isoform in the hearts of leptin-deficient ob/ob mice and ob/ob mice treated with either PBS or leptin. As an additional control, RNA isolated from saline-treated ob/ob mice that were pair-fed to the leptin treated group for 12 days was also analyzed. […] To determine which SCD isoform(s) accounted for these effects, we measured RNA levels of mSCD1, mSCD2, and mSCD4. […]

B1: leptin: recombinant mouse leptin (Amgen, Thousand Oaks, Calif.) (protein, UniProt P41160 22-167, looked up)
Leptin: VPIQKVQDDTKTLIKTIVTRINDISHTQSVSAKQRVTGLDFIPGLHPILSLSKMDQTLAVYQQVLTSLPSQNVLQIANDLENLRDLLHLLAFSKSCSLPQTSGLQKPESLDGVLEASLYSTEVVALSRLQGSLQDILQQLDVSPEC
decrease of SCD4 mRNA levels (mSCD4): greater than 75% | food intake (ob/ob mice; after 12 days of treatment): 1.2 ± 0.1 g | loss of initial weight (ob/ob mice; end of 12-day treatment): 34±0.8%
